This is an account of results in patent publication US7910344B2, “Proteins having tyrosinase activity” (Valtion teknillinen tutkimuskeskus, priority 2005, dated 2011).

“Also recorded” adds a separate entry of the source.

In series [1] the test system is salt soluble proteins (SSP) of chicken breast muscle myofibrils. In words: Cross-linking of chicken myofibril salt soluble proteins followed by SDS-PAGE. As for the experimental part: Changes in the molecular weight of the isolated salt soluble proteins (SSP) of chicken breast muscle myofibrils caused by TYR2 were analysed by SDS-PAGE. SPP were isolated according to Xiong and Brekke, 1989. For enzyme treatment SSP was suspended in 50 mM Na-phosphate buffer, pH 7, containing 0.6 M NaCl to the protein concentration of 3 mg/ml. 120 nkat or 240 nkat of TYR2 per gram of protein was added to the suspension. Control suspension was treated in a similar way but without enzyme addition. Reaction mixture was incubated at 30° C. Samples were drawn at the time points of 2 min, 1 hour, 3 hours and 24 hours. SDS-PAGE sample buffer was added and the samples were heated in a boiling water bath. 20 μg of protein from each sample was loaded onto 12% Tris-HCl polyacryl amide gels. SDS-PAGE was performed according to Laemmli, 1970.

Series [2] can be described thus: pH optimum of the tyrosinase by oxygen consumption measurements. The settings on record: 15 mM L-Dopa, 4.3 μg purified tyrosinase. The series is classed as biochemical. The protocol: pH optimum for the tyrosinase was studied by oxygen consumption measurements. Measurements were performed with a single channel oxygen meter (Precision sensing GmbH, Germany) containing fiber-optic oxygen minisensors with measurement range 0-100% oxygen. L-Dopa in 15 mM concentration, dissolved in 0.1 M sodium phosphate buffer, pH 7.0, was used as substrate. Reactions were carried out with 1.8 ml substrate solution and with 4.3 μg of the purified T. reesei tyrosinase. Three different buffers were used according to their buffer capacity. McIlvaine buffer was used within a pH range of 2-7, Tris-HCl buffer (50 mM) within a pH range 7-9 and borate buffer (12.5 mM) within a pH range of 8-9.5. The pH optimum of TYR2 is at 8-8.5. The enzyme has relatively high activity within a quite wide pH range, 5-9. […] In the measurements with Tris-HCl buffer in pH 8, 8.5 and 9.0 also a blank test without enzyme addition was performed to correct the effect of auto-oxidation in results. The pH optimum of the tyrosinase seemed to be dependant on the buffer.

The nature of series [3]: Stability of the enzyme at different pH-values (residual activity on L-Dopa). The series is classed as physicochemical. The settings on record: McIlvaine buffer, room temperature. The protocol:
The stability of the enzyme at different pH-values was determined in McIlvaine, 50 mM Na2HPO4-25 mM citric acid, buffer by incubating the enzyme solution in different pH-values at room temperature. The residual tyrosinase activity was determined by measuring the activity of the enzyme solutions with L-Dopa as substrate.

Series [4] in a line: Kieffer extensibility test of wheat dough. The settings on record: 1 and 10 nkat/g flour, resting 15-45 min, about 22° C. As for the experimental part:
The influence of TYR2 on the large deformation rheology of wheat dough was investigated by using Kieffer extensibility rig (Stable Micro Systems, Ltd. United Kingdom). Dough extensibility and resistance to extension were measured as a function of enzyme dosage and dough's resting time.
Wheat flour was mixed with Farinograph (Brabender, Germany) using 12 g flour and 7.2 ml liquid phase (60%). Tyrosinase (1 and 10 nkat/g flour) was added to water right before mixing with flour. Mixing time was 4 min. Subsequently, dough was placed into a mould to produce approximately 10-12 test strings. The pressed mould was kept at room temperature for 15-45 min to allow stress relaxation. In the Kieffer tests, dough strings were centrally extended until the elastic limit of the string was exceeded and it ruptured. Maximum resistance Rmax, maximum extensibility Emax and extensibility Ex at Rmax were determined by recording the peak force and the distance at the maximum and at the extension limit. All dough preparations, enzyme treatments and measurements were performed at room temperature, approximately at 22° C.

The next series deals with α-casein. In words: Cross-linking of model proteins followed by changes in MW on SDS-PAGE. As for the experimental part: The cross-linking ability in model proteins of TYR2 was also analyzed by following changes in MW on SDS-PAGE. […] Details are given in examples 8 and 9.
Series [5] concerns chicken breast myofibrils. In words: Gel forming of chicken myofibril matrix, storage modulus (G′), Bohlin Rheometer. The settings on record: 240 nkat TYR2/g protein, 25, 30 and 40° C., 3 hours, pH 6. As for the experimental part: Ability of TYR2 to form cross-links in a chicken myofibril matrix was also investigated as a development of storage modulus (G′) measuring gel forming ability at low deformation. Measurements were carried out during heating at constant temperature using a Bohlin Rheometer. Chicken breast myofibrils were isolated according to Xiong and Brekke (1989) omitting EDTA and NaN3 from the isolation buffer. Isolated myofibrils were suspended in 50 mM Na-phosphate buffer, pH 6, supplemented with 0.30 M NaCl to the protein concentration of 40 mg/ml. Suspensions were treated with 240 nkat of TYR2 per gram of protein at 25° C., 30° C. and 40° C. for 3 hours. Control samples were treated in a similar way but without enzyme.

The nature of another series: Isoelectric focusing. The series is classed as physicochemical. Particulars: purified TYR2, Coomassie Blue staining, pH range 3.5-9.5. As for the experimental part: The isoelectric point (pI) of the enzyme from culture supernatant and purified enzyme was determined by isoelectric focusing within a pH range of 3.5-9.5 (Ampholine PAGplate 3.5-9.5 for IEF, Amersham Bioscience) on an LKB 2117 Multiphor II Electrophoresis System (LKB Pharmacia, Bromma, Sweden) according to manufacturer's instructions. Bands containing tyrosinase activity were visualized by staining the gel with 15 mM L-Dopa in 0.1 M sodium phosphate buffer (pH 7.0) and proteins by Coomassie Blue staining. […] Under native conditions in isoelectric focusing both the culture filtrate and the purified tyrosinase didn't show a clear band, when stained with L-Dopa, instead the activity was observed as a brown zone at about pH 9.

A further series deals with caseinate. Nature of the series: Caseinate gel hardness by Texture Analyzer. Particulars: 3% caseinate, 0.4% GDL, 20 nkat/g protein TYR2, 22 hours, room temperature. As for the experimental part:
3% of commercial caseinate was mixed in water and 0.4% GDL (glucono-delta-lactone) and 20 nkat/g protein of TYR2 was added to the mixture. It was allowed to rest for 22 hours at room temperature, whereafter the gel hardness was measured by Texture Analyzer (FIG. 6).

B1: TYR2: extracellular tyrosinase of Trichoderma reesei encoded by tyr2, SEQ ID NO:4, 571 amino acids, C-terminally processed (protein, listed as Trichoderma reesei)
chain: MLLSASLSALALATVSLAQGTTHIPVTGVPVSPGAAVPLRQNINDLAKSGPQWDLYVQAMYNMSKMDSHDPYSFFQIAGIHGAPYIEYNKAGAKSGDGWLGYCPHGEDLFISWHRPYVLLFEQALVSVAKGIANSYPPSVRAKYQAAAASLRAPYWDWAADSSVPAVTVPQTLKINVPSGSSTKTVDYTNPLKTYYFPRMSLTGSYGEFTGGGNDHTVRCAASKQSYPATANSNLAARPYKSWILVTDTESGPQYDVLTNSQNFADFASTSGPGINVEQIHNAIHWDGACGSQFLAPDYSGFDPLFFMHHAQVDRMWAFWEAIMPSSPLFTASYKGQSRFNSKSGSTITPDSPLQPFYQANGKFHTSNTVKSIQGMGYSYQGIEYWQKSQAQIKSSVTTIINQLYGPNSGKKRNAPRDFLSDIVTDVENLIKTRYFAKISVNVTEVTVRPAEINVYVGGQKAGSLIVMKLPAEGTVNGGFTIDNPMQSILHGGLRNAVQAFTEDIEVEILSKDGQAIPLETVPSLSIDLEVANVTLPSALDQLPKYGQRSRHRAKAAQRGHRFAVPHIPPL
modifications: C-terminally processed
B1: the “Detectable electrophoretic changes of SSP” value in series [1] (120 or 240 nkat TYR2/g protein, 30° C., pH 7, up to 24 h) was “progressive disappearance of the myosin band of ˜200 kDa; also recorded: progressive disappearance of the band of ˜36 kDa; also recorded: appearance of large molecular weight protein products (>200 kDa)”. For the same molecule, the “Cross-linking ability (changes in MW on SDS-PAGE)” value in series [1] (chicken myofibril) is “able to cross-link”. In addition, the “pH range of relatively high activity” value in series [2] was 5-9. Besides, in series [2] (McIlvaine, Tris-HCl, borate buffers), the pH optimum was 8-8.5. In series [3], the pH stability entry is “good stability at neutral and alkaline pH”. In addition, in series [4], the “Dough extensibility Ex at Rmax” value was “decreased the dough extensibility Ex at Rmax” and the “Maximum resistance Rmax of dough” value is recorded as “increased the maximum resistance Rmax of dough”. The “Cross-linking ability (changes in MW on SDS-PAGE)” value in the series on α-casein was “able to cross-link”. The “Storage modulus (G′), gel forming” value in series [5] is listed as “greater increase in G′”. In the series “Isoelectric focusing”, the “Isoelectric point (bands in isoelectric focusing)” value was about 9. Besides, the “Hardness of caseinate gel” value with caseinate is given as “doubled the hardness of the caseinate gel”.
